Measurements taken from patent publication US20250197467A1 (BRIGHT PEAK THERAPEUTICS, published 2025).

T1: IL-18 receptor (IL-18Rαβ) on cells (UniProt Q13478 19-541; O95256 20-599, limits assumed)
T1 sequence (looked up) 1: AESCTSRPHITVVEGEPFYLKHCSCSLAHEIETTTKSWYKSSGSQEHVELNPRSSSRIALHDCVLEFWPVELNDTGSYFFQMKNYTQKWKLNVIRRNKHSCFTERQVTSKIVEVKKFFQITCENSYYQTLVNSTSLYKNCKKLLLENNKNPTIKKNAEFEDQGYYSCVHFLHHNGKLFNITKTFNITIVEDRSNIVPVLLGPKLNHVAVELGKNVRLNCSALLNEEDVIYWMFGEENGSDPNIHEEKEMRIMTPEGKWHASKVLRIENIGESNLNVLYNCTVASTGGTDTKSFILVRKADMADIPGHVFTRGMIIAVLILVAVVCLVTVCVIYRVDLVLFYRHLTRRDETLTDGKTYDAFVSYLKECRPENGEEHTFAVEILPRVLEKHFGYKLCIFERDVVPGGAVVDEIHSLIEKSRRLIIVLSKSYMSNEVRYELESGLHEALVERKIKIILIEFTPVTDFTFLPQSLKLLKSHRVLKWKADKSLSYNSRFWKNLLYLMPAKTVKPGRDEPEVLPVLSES
T1 sequence (looked up) 2: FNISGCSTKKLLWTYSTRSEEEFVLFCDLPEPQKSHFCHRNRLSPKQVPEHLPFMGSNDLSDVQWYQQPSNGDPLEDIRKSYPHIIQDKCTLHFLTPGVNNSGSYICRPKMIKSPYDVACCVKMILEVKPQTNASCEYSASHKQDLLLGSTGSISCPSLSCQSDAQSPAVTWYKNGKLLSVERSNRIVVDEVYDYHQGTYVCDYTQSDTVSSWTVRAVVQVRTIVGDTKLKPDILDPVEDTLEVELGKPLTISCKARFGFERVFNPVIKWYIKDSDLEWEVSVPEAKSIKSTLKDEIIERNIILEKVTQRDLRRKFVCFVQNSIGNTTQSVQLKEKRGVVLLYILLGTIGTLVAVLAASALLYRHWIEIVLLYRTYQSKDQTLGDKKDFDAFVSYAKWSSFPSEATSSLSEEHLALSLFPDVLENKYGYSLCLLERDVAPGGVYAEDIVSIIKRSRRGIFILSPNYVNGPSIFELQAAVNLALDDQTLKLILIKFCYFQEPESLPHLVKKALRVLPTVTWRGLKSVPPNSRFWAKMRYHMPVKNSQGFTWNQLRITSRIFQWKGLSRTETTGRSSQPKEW


Target: T1, IL-18 receptor (IL-18Rαβ) on cells
Assay: cell-based or functional assay

Row | EC50 (IFNγ stimulation, NK92) [nM] | Binder
1 | 58.5 | SEQ ID NO 49 (ligand) YFGKLKSKLSVIRNLNDQVLFIDQGNRPLFEDMTDSDSRDNAPRTIFIISMYADAQPRGMAVTISVKSECISTLSSENKIISFKEMNPPDNIKDTKSDIIFFQRSVPGHDNKMQFESSSYEGYFLASEKERDLFKLILKKEDELGDRSIMFTVQNED
2 | 0.115 | SEQ ID NO 47 (ligand) YFGKLESKLSVIRNLNDQVLFIDQGNRPLFEDMTDSDSRDNAPRTIFIISMYKDSQPRGMAVTISVKSEKISTLSSENKIISFKEMNPPDNIKDTKSDIIFFQRSVPGHDNKMQFESSSYEGYFLASEKERDLFKLILKKEDELGDRSIMFTVQNED
3 | 7.4 | SEQ ID NO 46 (ligand) YFGKLKSKLSVIRNLNDQVLFIDQGNRPLFEDMTDSDCRDNAPRTIFIISGYADAQPRGMAVTISVKCEKISTLSCENKIISFKEMNPPDNIKDTKSDIIFFQRSVPGHDNKMQFESSSYEGYFLACEKERDLFKLILKKEDELGDRSIMFTVQNED
4 | > 1000 | SEQ ID NO 44 (ligand) YAGKLKSKLSVIRNLNDQVLFIDQGNRPLFEDMTDSDCRDNAPRTIFIISMYADAQPRGMAVTISVKCEKISTLSCENKIISFKEMNPPDNIKDTKSDIIFFQRSVPGHDNKMQFESSSYEGYFLACEKERDLFKLILKKEDELGDRSIMFTVQNED
5 | 0.488 | SEQ ID NO 48 (ligand) YFGKLESKLSVIRNLNDQVLFIDQGNRPLFEDMTDSDSRDNAPRTIFIISMYKDSQPRGMAVTISVKSECISTLSSENKIISFKEMNPPDNIKDTKSDIIFFQRSVPGHDNKMQFESSSYEGYFLASEKERDLFKLILKKEDELGDRSIMFTVQNED

Further lines, the binder ahead of its results:

Row | Binder | EC50 (IFNγ stimulation, NK92) [nM]
6 | SEQ ID NO 35 (ligand) GAGKLKSKLSVIRNLNDQVLFIDQGNRPLFEDMTDSDCRDNAPRTIFIISGYAAAQPRGMAVAISVKCEKISTLSCENKIISFKEMNPPDNIKDTKSDIIFFQRSVPGHDNKMQFESSSYEGYFLACEKERDLFKLILKKEDELGDRSIMFTVQNED | > 55
7 | SEQ ID NO 43 (ligand) GFGKLKSKLSVIRNLNDQVLFIDQGNRPLFEDMTDSDCRDNAPRTIFIISMYADAQPRGMAVTISVKCEKISTLSCENKIISFKEMNPPDNIKDTKSDIIFFQRSVPGHDNKMQFESSSYEGYFLACEKERDLFKLILKKEDELGDRSIMFTVQNED | 6.12
8 | SEQ ID NO 45 (ligand) YFGKLKSKLSVIRNLNDQVLFIDQGNRPLFEDMTDSDCRDNAPRTIFIISMYAAAQPRGMAVTISVKCEKISTLSCENKIISFKEMNPPDNIKDTKSDIIFFQRSVPGHDNKMQFESSSYEGYFLACEKERDLFKLILKKEDELGDRSIMFTVQNED | 30
9 | SEQ ID NO 55 (ligand) YFGKLESKLSVIRNLNDQVLFIDQGNRPLFEDMTDSDSRDNAPRTIFIISMYADSQPRGMAVAISVKSECISTLSSENKIISFKEMNPPDNIKDTKSDIIFFQRSVPGHDNKMQFESSSYEGYFLASEKERDLFKLILKKEDELGDRSIMFTVQNED | 17.2

Target: T1, IL-18 receptor (IL-18Rαβ) on cells
Assay: cell-based or functional assay
Remark: another data set of the same source

Row | HEK-Blue IL-18R reporter EC50 [pM] | Binder
10 | 3.73 | SEQ ID NO 56 (ligand) YFGKLKSKLSVIRNLNDQVLFIDQGNRPLFEDMTDSDSRDNAPRTIFIISMYADSQPRGMAVTISVKCEKISTLSSENKIISFKEMNPPDNIKDTKSDIIFFQRSVPGHDNKMQFESSSYEGYFLASEKERDLFKLILKKEDELGDRSIMFTVQNED
11 | 0.02 | C142 (ligand) MFGKLKSKLSIIRNLNDQVLFIDQGNRPLFEDMTDSDARDNAPRTIFIISMYADSQPRGMAVAISVKCEKISTLSAENKIISFKEMNPPDNIKDTKSDIIFFQRSVPGHDNKMQFESSSYEGYFLAAEKERDLFKLILKKEDELGDRSIMFTVQNED
12 | 0.1 | C181 (ligand) YFGKLKSKLSIIRNLNDQVLFIDQGNRPLFEDMTDSDARDNAPRTIFIISMYADSQPRGMAVAISVKCEKISTLSAENKIISFKEMNPPDNIKDTKSDIIFFQRSVPGHDNKMQFESSSYEGYFLAAEKERDLFKLILKKEDELGDRSIMFTEQNED
13 | 0.04 | C184 (ligand) YFGKLRSKLSIIRNLNDQVLFIDQGNRPLFEDMTDSDARDNAPRTIFIISMYADSQPRGMAVAISVKCEKISTLSAENKIISFKEMNPPDNIKDTKSDIIFFQRSVPGHDNKMQFESSSYEGYFLAAEKERDLFKLILKKEDELGDRSIMFTVQNED
14 | 0.08 | C182 (ligand) YFGKLKSKLSIIRNLNDQVLFIDQGNRPLFEDMTDSDARDNAPRTIFIISMYADSQPRGMAVAISVKCEKISTLSAENKIISFKEMNPPDNIKDTKSDIIFFQRSVPGHDNKMQFESSSYEGYFLAAEKERDLFKLILKKEDELGDRSIMFTYQNED

Further lines, the binder ahead of its results:

Row | Binder | HEK-Blue IL-18R reporter EC50 [pM]
15 | C140 (ligand) GGGGYFGKLKSKLSIIRNLNDQVLFIDQGNRPLFEDMTDSDARDNAPRTIFIISMYADSQPRGMAVAISVKCEKISTLSAENKIISFKEMNPPDNIKDTKSDIIFFQRSVPGHDNKMQFESSSYEGYFLAAEKERDLFKLILKKEDELGDRSIMFTVQNED | 2.5
16 | C141 (ligand) GYFGKLKSKLSIIRNLNDQVLFIDQGNRPLFEDMTDSDARDNAPRTIFIISMYADSQPRGMAVAISVKCEKISTLSAENKIISFKEMNPPDNIKDTKSDIIFFQRSVPGHDNKMQFESSSYEGYFLAAEKERDLFKLILKKEDELGDRSIMFTVQNED | 1.68
17 | C192 (ligand) GYFGKLKSKLSIIRNLNDQVLFIDQGNRPLFEDMTDSDARDNAPRTIFIISGYADSQPRGMAVAISVKCEKISTLSAENKIISFKEMNPPDNIKDTKSDIIFFQRSVPGHDNKMQFESSSYEGYFLAAEKERDLFKLILKKEDELGDRSIMFTVQNED | 14
18 | C179 (ligand) YFGKLKSELSIIRNLNDQVLFIDQGNRPLFEDMTDSDARDNAPRTIFIISMYADSQPRGMAVAISVKCEKISTLSAENKIISFKEMNPPDNIKDTKSDIIFFRRSVPGHDNKMQFESSSYEGYFLAAEKERDLFKLILKKEDELGDRSIMFTVQNED | 0.4
19 | C178 (ligand) YFGKLKSKLSIIRNLNDQVLFIDQGNRPLFEDMTDSDARDNAPRTIFIISMYADSQPRGMAVAISVKCEKISTLSAENKIISFKEMNPPDNIKDTKSDIIFFRRSVPGHDNKMQFESSSYEGYFLAAEKERDLFKLILKKEDELGDRSIMFTVQNED | 0.26
20 | C183 (ligand) YFGKLKSKLSIIRNLNDQVLFIDQGNRPLFEDMTDSDARDNAPRTIFIISGYADSQPRGMAVAISVKCEKISTLSAENKIISFKEMNPPDNIKDTKSDIIFFQRSVPGHDNKMQFESSSYEGYFLAAEKERDLFKLILKKEDELGDRSIMFTVQNED | 0.1
21 | C177 (ligand) YFGKLKSKLSIIRNLNDQVLFIDQGNRPLFEDMTDSDARDNAPRTIFIRSMYADSQPRGMAVAISVKCEKISTLSAENKIISFKEMNPPDNIKDTKSDIIFFQRSVPGHDNKMQFESSSYEGYFLAAEKERDLFKLILKKEDELGDRSIMFTVQNED | 0.04
22 | C174 (ligand) YFGKLKSLLSIIRNLNDQVLFIDQGNRPLFEDMTDSDARDNAPRTIFIISMYADSQPRGMAVAISVKCEKISTLSAENKIISFKEMNPPDNIKDTKSDIIFFQRSVPGHDNKMQFESSSYEGYFLAAEKERDLFKLILKKEDELGDRSIMFTVQNED | 0.29
23 | C176 (ligand) YFGKLKSKLSIIRNLNDQVLFIDQGNRPLFEDMTDSDARDNAPRTIFIMSMYADSQPRGMAVAISVKCEKISTLSAENKIISFKEMNPPDNIKDTKSDIIFFQRSVPGHDNKMQFESSSYEGYFLAAEKERDLFKLILKKEDELGDRSIMFTVQNED | 0.07
